Data from FireProtDB (doi:10.1110/ps.062645007).
Several values for one entry are separate records, joined by “and”; a condition that tells them apart may be missing. Equal entries are not always repeated.

Conditions: Salmonella typhimurium (strain LT2 / SGSC1412 / ATCC 700720); pH 7.4; Thermal; CD; Phosphate 10 mM; transition: 3; whole UniProt chain shown

B1: Cell invasion protein SipD wild type, Q56026 (protein)
chain: MLNIQNYSASPHPGIVAERPQTPSASEHVETAVVPSTTEHRGTDIISLSQAATKIHQAQQTLQSTPPISEENNDERTLARQQLTSSLNALAKSGVSLSAEQNENLRSAFSAPTSALFSASPMAQPRTTISDAEIWDMVSQNISAIGDSYLGVYENVVAVYTDFYQAFSDILSKMGGWLLPGKDGNTVKLDVTSLKNDLNSLVNKYNQINSNTVLFPAQSGSGVKVATEAEARQWLSELNLPNSCLKSYGSGYVVTVDLTPLQKMVQDIDGLGAPGKDSKLEMDNAKYQAWQSGFKAQEENMKTTLQTLTQKYSNANSLYDNLVKVLSSTISSSLETAKSFLQG
For B1, the Tm was 75.7 °C and 76.6 °C.
